# Results from the RNAGym collection of RNA variant scans (doi:10.7554/elife.90254).
# B1: LINE1-full (parent)
# chain: UACGUAGGUGGUUUUCCCCUGAUAGUGCUAAGGGGGCCUGGAAGUUUGGACUGGGCAGAGCUCAACACAGCGUGGCAAAGUGGCUGUGGCUAGACUGCCUCUCUGGAUUCCUCGUCACUCAGCAGGGCAUCUCUGAGAGAAAUGCC
# Variants of: B1
# Test: self-cleavage, relative activity (ratio to wild type); higher = more cleavage; in vitro, sequencing; the parent is a self-cleaving ribozyme
row,Variant,self-cleavage
1,G32U C116U,1.15
2,G32U G83U,0.6
3,G32U U39A,1.06
4,G32U U52A,1.85
5,G32U U62C,0.06
6,G32U U73C,1.1
7,G32U U85A,0.09
8,G32U U85C,0.17
9,G32U U102C,1.13
10,G32U U119A,0
11,G32U U130A,1.7
12,G33A A43G,1.29
13,G33A A50G,1.02
14,G33A A57G,0.56
15,G33A A77U,1.47
16,G33A A107G,1.52
17,G33A A117G,1.91
18,G33A A121G,1.28
19,G33A A136U,1.69
20,G33A A138G,1.36
21,G33A A141G,1.01
22,G33A A142G,1.2
23,G33A C56U,0.35
24,G33A C76U,1.87

row,Variant,self-cleavage
1,G33A U45A,0.86
2,G33A U87C,0.2
3,G33A U91A,0.59
4,G33A U96C,0.12
5,G33A U102A,0.64
6,G33A U109C,1.05
7,G33A U115C,1.48
8,G33A U132C,1.47
9,G33C A59G,0
10,G33C A65G,0
11,G33C A69G,0.58
12,G33C A79G,1.78
13,G33C A117U,0.85
14,G33C A121G,0.21
15,G33C A129U,1.69
16,G33C C128U,0.92
17,G33C U46A,1.45
18,G33C U62C,0.1
19,G33C U87G,0.22
20,G33C U91C,0.41
21,G33C U96A,0.05
22,G33C U100C,1.63
23,G33C U104A,1.27
24,G33C U119C,1.8

row,Variant,self-cleavage
1,G33U A43U,0.54
2,G33U A50U,1.14
3,G33U A57G,0.64
4,G33U A59U,0.62
5,G33U A64G,0.21
6,G33U A64U,0.41
7,G33U A67U,0.17
8,G33U A69G,0.69
9,G33U A79G,1.51
10,G33U A94G,0.15
11,G33U A117G,1.39
12,G33U A124U,1.84
13,G33U A136G,1.7
14,G33U A141G,1.32
15,G33U A142G,0.88
16,G33U C101U,1.26
17,G33U C103U,1.15
18,G33U C116U,1.17
19,G33U G75A,0.78
20,G33U G114A,1.36
21,G33U U47C,1.73
22,G33U U87A,0.03
23,G33U U130A,0.9
24,G33U U134A,1.24

row,Variant,self-cleavage
1,G33U U143C,0.61
2,G34A,1.16
3,G34A A42G,0.35
4,G34A A43C,1.23
5,G34A A43G,0.73
6,G34A A57G,1.21
7,G34A A64G,0.12
8,G34A A67G,0.35
9,G34A A77G,1.88
10,G34A A79G,1.11
11,G34A A79U,2.33
12,G34A A92G,0.08
13,G34A A94G,0.18
14,G34A A107G,2.74
15,G34A A121G,1.16
16,G34A A121U,1.22
17,G34A A138G,1.68
18,G34A A140G,0.5
19,G34A A141G,1.41
20,G34A A142G,1.45
21,G34A C95A,0.07
22,G34A C103U,1.7
23,G34A C120U,1.64
24,G34A G70A,0.11

row,Variant,self-cleavage
1,G34A G144A,1.31
2,G34A U45C,0.87
3,G34A U46C,1.27
4,G34A U52A,1.7
5,G34A U52C,1.1
6,G34A U85A,0.1
7,G34A U85C,0.12
8,G34A U100C,1.37
9,G34A U102C,1.43
10,G34A U108C,1.16
11,G34A U108G,1.55
12,G34A U115A,1.08
13,G34A U115C,2.03
14,G34C,1.47
15,G34C A42G,2.94
16,G34C A50U,1.81
17,G34C A77G,1.64
18,G34C A77U,1.18
19,G34C A107G,1.12
20,G34C A136G,1.79
21,G34C A140G,1.38
22,G34C A141G,1.66
23,G34C C56G,0.03
24,G34C G82A,2.16

row,Variant,self-cleavage
1,G34C U39C,1.65
2,G34C U47A,0.64
3,G34C U47C,1.79
4,G34C U62A,0.04
5,G34U,1.43
6,G34U A43G,1.06
7,G34U A43U,0.97
8,G34U A64G,0.36
9,G34U A65G,0.02
10,G34U A77G,2.2
11,G34U A79G,0.55
12,G34U A107U,1.96
13,G34U A117G,2
14,G34U A129G,1.98
15,G34U A138G,1.56
16,G34U A138U,1.19
17,G34U A141G,1.56
18,G34U C116U,1.46
19,G34U G48A,1.49
20,G34U U39A,1.89
21,G34U U47C,2.18
22,G34U U52A,1.22
23,G34U U73A,2.36
24,G34U U73G,0.99

row,Variant,self-cleavage
1,G34U U81C,2.12
2,G34U U85G,0.09
3,G34U U91A,0.49
4,G34U U91C,0.51
5,G34U U96G,0
6,G34U U104A,1.53
7,G34U U109C,1.52
8,G34U U119C,1.7
9,G34U U132C,1.51
10,G34U U134A,1.04
11,G34U U134C,1.57
12,G34U U143G,1.01
13,G35A A43G,0.71
14,G35A A67G,0.22
15,G35A A77G,1.92
16,G35A A77U,0.8
17,G35A A79U,1.72
18,G35A A92G,0.02
19,G35A A121U,0.97
20,G35A A124G,0.61
21,G35A A129U,1.62
22,G35A A136U,1.1
23,G35A A138G,1.22
24,G35A A141G,1.39

row,Variant,self-cleavage
1,G35A C76U,2.14
2,G35A C95A,0.07
3,G35A G86A,0.05
4,G35A G105A,1.15
5,G35A G125U,1.03
6,G35A U39C,0.53
7,G35A U45A,1.28
8,G35A U52A,0.86
9,G35A U62A,0.05
10,G35A U62C,0.03
11,G35A U73C,1.19
12,G35A U87A,0.08
13,G35A U96C,0.09
14,G35A U100A,0.31
15,G35A U104C,1.42
16,G35A U108C,1.11
17,G35A U115A,1.17
18,G35A U115C,1.03
19,G35A U130C,0.96
20,G35A U134C,0.92
21,G35A U134G,0.47
22,G35C A59G,0.19
23,G35C A67G,0.22
24,G35C U47C,1.84

row,Variant,self-cleavage
1,G35C U85C,0.22
2,G35C U96C,0.26
3,G35C U119C,1.98
4,G35C U132C,1.53
5,G35C U134A,0.71
6,G35U A43G,1.93
7,G35U A67G,0.35
8,G35U A78U,2.1
9,G35U A94G,0.19
10,G35U A124U,1.41
11,G35U A140G,1.21
12,G35U A140U,1.19
13,G35U C110U,1.51
14,G35U C113U,1.09
15,G35U G75C,0.77
16,G35U G127A,1.22
17,G35U U52A,0.51
18,G35U U87C,0.14
19,G35U U100C,1.85
20,G35U U104A,1.31
21,G35U U134C,1.12
22,G35U U143A,1.56
23,G36A,1.16
24,G36A A50U,1.16

row,Variant,self-cleavage
1,G36A A57G,1.52
2,G36A A57U,0.12
3,G36A A59U,0.67
4,G36A A64G,0.13
5,G36A A78G,1.32
6,G36A A94G,0.34
7,G36A A121G,1.1
8,G36A A136G,1.43
9,G36A A138G,1.53
10,G36A A140G,1.3
11,G36A A142G,1.09
12,G36A C63U,0.36
13,G36A C116U,1.41
14,G36A U39A,1.3
15,G36A U45G,0.92
16,G36A U62G,0.01
17,G36A U73A,1.84
18,G36A U81A,2.04
19,G36A U81G,1.08
20,G36A U85A,0.04
21,G36A U100C,2.05
22,G36A U102C,1.14
23,G36A U108A,1.23
24,G36A U108C,1.37

row,Variant,self-cleavage
1,G36C,1.07
2,G36C A64C,0.35
3,G36C A107G,2.05
4,G36C A117G,1.51
5,G36C A140G,1.12
6,G36C G55A,0.13
7,G36C G74U,1.21
8,G36C U47A,0.89
9,G36C U52A,0.45
10,G36C U81C,0.9
11,G36C U87C,0.25
12,G36C U102C,1.08
13,G36C U104C,1.87
14,G36C U143A,0.7
15,G36U,1.35
16,G36U A94G,0.12
17,G36U A107G,0.9
18,G36U U45C,1.13
19,G36U U52A,0.64
20,G36U U62A,0.03
21,G36U U73A,0.46
22,G36U U108C,1.62
23,G36U U119A,1.4
24,G36U U134C,1.99

row,Variant,self-cleavage
1,G36U U143C,1.16
2,C37A,1.04
3,C37A A64U,0.35
4,C37A A92C,0.2
5,C37A A94C,0.06
6,C37A A94U,0.23
7,C37A A129G,1.22
8,C37A A142G,1.24
9,C37A C90U,0.04
10,C37A C95A,0.01
11,C37A U47A,1.12
12,C37A U96C,0.08
13,C37A U100A,0.93
14,C37A U100C,1.56
15,C37A U108C,1.51
16,C37A U130C,1.39
17,C37A U143C,0.75
18,C37G,1.13
19,C37G A59G,0.07
20,C37G A59U,0.84
21,C37G A65G,0
22,C37G A67U,0.12
23,C37G A79G,0.85
24,C37G A94G,0.32

row,Variant,self-cleavage
1,C37G A138G,0.8
2,C37G A142G,1.25
3,C37G G60A,0.06
4,C37G U45A,0.85
5,C37G U47A,1.11
6,C37G U47C,0.71
7,C37G U52C,0.75
8,C37G U62C,0.12
9,C37G U87C,0.2
10,C37G U96G,0.07
11,C37G U102A,0.9
12,C37G U102C,1.19
13,C37G U112C,0.28
14,C37G U119C,1.46
15,C37G U130G,0.68
16,C37G U143C,1.38
17,C37U,1.23
18,C37U A43G,1.32
19,C37U A67U,0.08
20,C37U A79C,1.22
21,C37U A107G,1.07
22,C37U A121G,1.62
23,C37U A136U,1.49
24,C37U A138G,1.2

row,Variant,self-cleavage
1,C37U A140G,0.26
2,C37U A140U,1.14
3,C37U A142G,1.52
4,C37U C56U,0.11
5,C37U C113U,0.42
6,C37U C146U,1.27
7,C37U G88A,0.04
8,C37U U39A,1.12
9,C37U U39C,1.26
10,C37U U45C,1.02
11,C37U U52C,1.13
12,C37U U52G,0.88
13,C37U U85C,0.19
14,C37U U91C,0.27
15,C37U U96A,0.04
16,C37U U109A,1.24
17,C37U U112A,1.07
18,C37U U115C,1.67
19,C37U U130A,0.99
20,C37U U143A,1.14
21,C38A A69G,0.61
22,C38A A121U,1.42
